According to US20220348635A1, “COMPOSITIONS AND METHODS FOR NEUROLOGICAL DISEASES” (Coda Biotherapeutics, Inc., priority 2019, published 2022):

What was measured:
Type in all cases: cell-based
[1] = YFP quench plate reader assay, response to APN-1125; details: LX293T YFP reporter cells
Description: (§1) FIGS. 1A-FIG. 1G show the heat maps of the percent quench of YFP fluorescence in the mutants of the engineered chimeric receptor SEQ ID NO:33 that comprise the indicated double amino acid substitutions following stimulation by various doses of either acetylcholine or the indicated non-native ligand. Ligand doses are written across the top of each chart. Numbers in the boxes indicate the absolute amount of quench observed. Dark blue=80% maximal quench of YFP reporter. Light blue=quench of 30-80%. White=10-30%. Orange=0-10% quench. Negative values represent non-responders that have a negative quench due to a stimulation artifact. SEQ ID NO:29 is a non-responding chimera used as a negative control. Abbreviations for non-native ligand names: abt: ABT-126; ach: acetylcholine; apn: APN-1125; azd: AZD-0328; brd: TC-5619; fac: RG3487; tc6: TC-6987.
(§2) Tables 2-8 below lists percent quench of YFP fluorescence following stimulation of the indicated engineered receptor by various doses of either acetylcholine or the non-native ligand.
(§3) To screen these mutant LGICs for those having novel response profiles to ligands, an anion reporter assay was developed to assess the function of channels in a high throughput format. In this assay, cells expressing a YFP reporter whose fluorescence is quenched in the presence of anion are transfected with DNA encoding the channel of interest. Upon exposure to ligand, channels that are activated will flux anion, resulting in a dose-dependent quench of the YFP that can be detected on a plate reader.
(§4) Lenti-X 293T cells (LX293T, Clontech) were maintained in DMEM containing 10% FBS and 1% penicillin/streptomycin (Invitrogen). […] Two days before assay, cells were split at a density of 20,000 cells/well in a 96-well tissue culture plate coated with poly-d lysine (Thermo Scientific). The next day, the cells were transiently transfected with 0.1 μg of DNA per well using standard Fugene protocol (Promega). On the day of assay, cells were washed 2 times in 1× extracellular solution (1×ECS: 140 mM NaCl, 5 mM KCl, 1 mM MgCl2, 2 mM CaCl2, 10 mM HEPES, 10 mM glucose, pH 7.2, mOsms 300). After the last wash, 100 μL of 1×ECS was added to the wells and the plate was incubated at 37° C. for 30 min. While incubating the plate, the drugs were diluted to a 2× concentration in 1×ECS-NaI (same components as 1×ECS except the 140 mM NaCl was replaced by 140 mM NaI). The plates were then read on a Flexstation3 (Molecular Devices). Each well, 8 wells at a time, of the plate is read for 2 min using a Flexstation3 (Molecular Devices) as follows: 1) a baseline YFP fluorescence is read for 17 sec, 2) 100 μL of ligand is added, and 3) the changes in YFP fluorescence are then measured every 1.3 sec for the remaining time.
(§5) FIG. 1 provides heat maps of the percent quench of YFP fluorescence following stimulation by various doses of either acetylcholine or the non-native ligand as indicated in the Figure. A positive fluorescence signal, as indicated by blue shaded cells, indicate that the engineered receptor is activated by the non-native ligand at that concentration. […] Table 12 lists the EC50 values for the indicated double mutants to acetylcholine (Ach) and TC-5619 as determined from the YFP fluorescence plate reader experiment.

[2] = YFP quench plate reader assay, response to acetylcholine; details: LX293T YFP reporter cells
Description: as §1, §2, §3, §4, §5

[3] = High throughput electrophysiology in HEK293T cells, AZD-0328; details: HEK293T cells, held at −60 mV
Protocol: To confirm the EC50s determined by plate reader as well as develop a better understanding of maximum current flow, the engineered receptors were subjected to high throughput electrophysiology system, as described below. For HEK293T studies, cDNAs encoding ion channels were cloned into pcDNA3.1 using standard recombination techniques. HEK293T cells from Clontech (Lenti-X™ 293T Cell Line) were cultured in DMEM supplemented with 10% FBS and 1% Pen/Strep to 40-50% confluence using standard cell culture protocols, transfected with ion channel plasmids at a concentration of 18 μg per 15 cm dish using Fugene 6, and grown for an additional 24 hours. Cells were then assayed on a electrophysiological system (IonFluxHT and/or Mercury, Fluxion Biosciences) in which dose-response relationships may be assessed through a microfluidics-based platform for establishing whole cell configurations. Ensemble plates were primed with extracellular buffer (140 mM NaCl, 5 mM KCl, 2 mM CaCl2), 1 mM MgCl2, 10 mM HEPES, and 10 mM glucose, pH 7.2 with NaOH, mOsm 310), intracellular buffer (145 mM CsCl, 2 mM CaCl2, 2 mM MgCl2, 10 mM HEPES, and 10 mM EGTA, pH 7.2 with CsOH, mOsm 305), as adapted from Lynagh and Lynch, and test compounds (stocks prepared fresh) diluted in extracellular buffer. Cells were then released from the plate with Accutase, centrifuged, resuspended in extracellular buffer, and loaded into Ensemble plates. Cells were then subjected to a standard protocol for priming, trapping, breaking, and establishing whole cell configuration, with cells held at −60 mV throughout the recording. After recording baseline, progressive doses of test compounds were applied using the IonFlux software to assess dose response relationships. Data were then analyzed off-line using custom Python scripts to convert data to .csv format, re-plot traces, and apply QC measurements to reject unstable recordings (i.e. thresholding based on access resistance and/or standard deviation in baseline, as well as artifact rejection). Peak currents were then calculated and population data were fit using a 4-parameter logistic equation as described by the Hill Equation. Currents were measured on an automated patch clamp system (Fluxion Biosciences) following 1 second addition of drug and the EC50 values calculated are tabulated below in Table 13.

[4] = YFP quench plate reader assay, response to AZD-0328; details: LX293T YFP reporter cells
Description: as §1, §2, §3, §4, §5

[5] = YFP quench plate reader assay, response to RG3487; details: LX293T YFP reporter cells
Description: as §1, §2, §3, §4, §5

[6] = YFP quench plate reader assay, response to TC-5619; details: LX293T YFP reporter cells
Description: as §1, §2, §3, §4, §5

[7] = YFP quench plate reader assay, response to ABT-126; details: LX293T YFP reporter cells
Description: as §1, §2, §3, §4, §5

[8] = YFP quench plate reader assay, response to TC-6987; details: LX293T YFP reporter cells
Description: as §1, §2, §3, §4, §5

B1: Y115D, L131E in SEQ ID NO: 33: engineered chimeric α7-nAChR/GlyRα1 LGIC receptor: SEQ ID NO: 33 with substitutions Y115D and L131E (protein)
chain: MRCSPGGVWLALAASLLHVSLQGEFQRKLYKELVKNYNPLERPVANDSQPLTVYFSLSLLQIMDVDEKNQVLTTNIWLQMSWTDHYLQWNVSEYPGVKTVRFPDGQIWKPDILLDNSADERFDATFHTNVEVNSSGHCQYLPPGIFKSSCPMDLKNFPMDVQTCKLKFGSWSYGGWSLDLQMQEADISGYIPNGEWDLVGIPGKRSERFYECCKEPYPDVTFTVTMRRRMGYYLIQMYIPSLLIVILSWISFWINMDAAPARVGLGITTVLTMTTQSSGSRASLPKVSYVKAIDIWMAVCLLFVFSALLEYAAVNFVSRQHKELLRFRRKRRHHKSPMLNLFQEDEAGEGRFNFSAYGMGPACLQAKDGISVKGANNSNTTNPPPAPSKSPEEMRKLFIQRAKKIDKISRIGFPMAFLIFNMFYWIIYKIVRREDVHNQ
modifications: synthetic sequence of chimeric LGIC
With B1 the “percent quench of YFP fluorescence, 100 nM apn” value ([1]; 100 nM APN-1125) was −5.71%, the “percent quench of YFP fluorescence, 1 uM apn” value ([1]; 1 uM APN-1125) was 13.03% and the “percent quench of YFP fluorescence, 30 uM apn” value ([1]; 30 uM APN-1125) was 25.2%. The “percent quench of YFP fluorescence, 10 uM ach” value ([2]; 10 uM acetylcholine) was 15.45%, the “percent quench of YFP fluorescence, 100 uM ach” value ([2]; 100 uM acetylcholine) was 13.77% and the “percent quench of YFP fluorescence, 1 mM ach” value ([2]; 1 mM acetylcholine) was 27.42%. The “percent quench of YFP fluorescence, 3 mM ach” value ([2]; 3 mM acetylcholine) was 53.62%, the “EC50 AZD-0328” value [3] was “no activity” and the “percent quench of YFP fluorescence, 100 nM azd” value ([4]; 100 nM AZD-0328) was 24.49%. For the same molecule, the “percent quench of YFP fluorescence, 300 nM azd” value ([4]; 300 nM AZD-0328) was 45.34%, the “percent quench of YFP fluorescence, 30 uM azd” value ([4]; 30 uM AZD-0328) was 71.21% and the “percent quench of YFP fluorescence, 30 nM fac” value ([5]; 30 nM RG3487) was 45.76%. The “percent quench of YFP fluorescence, 100 nM fac” value ([5]; 100 nM RG3487) was 63.92%, the “percent quench of YFP fluorescence, 300 nM fac” value ([5]; 300 nM RG3487) was 79.43% and the “percent quench of YFP fluorescence, 10 uM fac” value ([5]; 10 uM RG3487) was 80.1%. For the same molecule, the “percent quench of YFP fluorescence, 30 uM fac” value ([5]; 30 uM RG3487) was 84.91%, the “percent quench of YFP fluorescence, 1 nM brd” value ([6]; 1 nM TC-5619) was −1.52% and the “percent quench of YFP fluorescence, 3 nM brd” value ([6]; 3 nM TC-5619) was −5.35%. For the same molecule, the “percent quench of YFP fluorescence, 10 nM brd” value ([6]; 10 nM TC-5619) was −3.49%, the “percent quench of YFP fluorescence, 30 nM brd” value ([6]; 30 nM TC-5619) was 2.16% and the “percent quench of YFP fluorescence, 100 nM brd” value ([6]; 100 nM TC-5619) was 4.18%. The “percent quench of YFP fluorescence, 300 nM brd” value ([6]; 300 nM TC-5619) was 70.2%, the “percent quench of YFP fluorescence, 1 uM brd” value ([6]; 1 uM TC-5619) was 43.11% and the “percent quench of YFP fluorescence, 50 nM abt” value ([7]; 50 nM ABT-126) was −1.68%. The “percent quench of YFP fluorescence, 100 nM abt” value ([7]; 100 nM ABT-126) was −2.25%, the “percent quench of YFP fluorescence, 300 nM abt” value ([7]; 300 nM ABT-126) was −2.37% and the “percent quench of YFP fluorescence, 1 uM abt” value ([7]; 1 uM ABT-126) was 3.68%. The “percent quench of YFP fluorescence, 1 uM tc6” value ([8]; 1 uM TC-6987) was 36.07%, the “percent quench of YFP fluorescence, 10 uM tc6” value ([8]; 10 uM TC-6987) was 31.35% and the “percent quench of YFP fluorescence, 500 uM tc6” value ([8]; 500 uM TC-6987) was 28.18%.
